For assay [1], the target named is αSyn WT PFF (preformed fibrils of recombinant wild-type human α-synuclein) (human) (UniProt P37840). The experiment in a line: solution competition ELISA, free antibody captured on PFF plate; binding potency, PFF (ng/ml).
Assay [2] has the same target. The experiment in a line: ratio of monomer to PFF binding potency, solution competition ELISA.
The target in assay [3] is full-length human recombinant wild-type α-synuclein monomer (human) (UniProt P37840). The experiment in a line: solution competition ELISA, free antibody captured on PFF plate; binding potency, monomer (ng/ml).

The results in this text go back to US20210221878A1.

On to LB509 (antibody), for which the EC50 in assay [1] turned out to be 0.0016 mg/L; in assay [3], 0.062 mg/L. For the same substance, in assay [2], the Mono/PFF Ratio came out at 38.

As for MJFR1 (antibody), the 50% effective concentration (EC50) in assay [1] worked out at 0.0292 mg/L; in assay [3] it was 0.008 mg/L. The Mono/PFF Ratio in assay [2] was 0.27.

For the substance Syn303 (antibody), the EC50 turned out to be 0.109 mg/L in assay [1] and 0.0512 mg/L in assay [3]. The Mono/PFF Ratio in assay [2] turned out to be 0.47.

For MJFR14642 (antibody), the EC50 stood at 0.00051 mg/L in assay [1] and 3.66 mg/L in assay [3]. In addition, the Mono/PFF Ratio in assay [2] stood at 7230.
